Data published in paper PMC11532494 (Nature Communications, 2024).
Values joined by “and” are separate entries in the source; they are usually repeats but may differ in a detail not shown here. Identical values can stand only once. Like-named read-outs stand apart in the source and are kept apart here. No end group written: not given here. *: point of attachment. AMC = Cc1cc(=O)oc2cc(N*)ccc12

Legend:
KpHdaH (1b) = KpHdaH (1b) (Klebsiella pneumoniae, UniProt A0A377Z5F6); assay type: biochemical; conditions: for RFU means, KpHdaH (1b) / RFU*2 means, KpHdaH (1b): means of two measurements; for [AMC] (nM), KpHdaH (1b), means / [AMC] (nM), KpHdaH (1b): substrate screening; for [AMC] (nM), KpHdaH (1b), means: mean of two measurements
Controls [1] = assay type: biochemical
Controls [2] = assay type: biochemical; remark: listed apart in the source
VcHdaH (5b) = assay type: biochemical, Vibrio cholerae; conditions: for RFU means, VcHdaH (5b) / RFU*2 means, VcHdaH (5b): means of two measurements; for [AMC] (nM), VcHdaH (5b), means: substrate screening, mean of two measurements
LcApaH (3) = LcApaH (3) (Legionella cherrii, UniProt A0A0W0SGS1); assay type: biochemical
PsApaH (4) = PsApaH (4) (Pseudomonas sp. M30-35, UniProt A0A1Y0KY79); assay type: biochemical; conditions: for RFU means, PsApaH (4) / RFU*2 means, PsApaH (4): means of two measurements; for [AMC] (nM), PsApaH (4), means / [AMC] (nM), PsApaH (4): substrate screening; for [AMC] (nM), PsApaH (4), means: mean of two measurements
Protocol: (§1) Experiments with SIRT2 and SIRT5 were supplemented with NAD^+ (500 µM). Thereafter, a solution of trypsin (25 µL, 5.0 mg/mL; final concentration of 2.5 mg/mL) was added, and the development of the assay was allowed to proceed for 90 min at room temperature before fluorescence analysis. […] To this end, a single category is given to all conversions >48% on the heatmap. […] For the H4-derived peptide LGKbio no positive control was available.

RwDmhA (1b) = RwDmhA (1b) (Rhizorhabdus wittichii, UniProt A0A067XIQ6); assay type: biochemical
LpApaH (3) = LpApaH (3) (Legionella pneumophila, UniProt A0A2S6EWV0); assay type: biochemical
VsHdaH (1b) = assay type: biochemical, Vibrio sp.; conditions: for RFU means, VsHdaH (1b) / RFU*2 means, VsHdaH (1b): means of two measurements; for [AMC] (nM), VsHdaH (1b), means / [AMC] (nM), VsHdaH (1b): substrate screening; for [AMC] (nM), VsHdaH (1b), means: mean of two measurements
RsPrpH (1b) = test: Substrate screening assay (acyl-peptide-AMC); assay type: biochemical, Rhizorhabdus sp.
BsAcuC (2c) = target: T1, BsAcuC (2c) (Bacillus subtilis, UniProt P39067); test: Substrate screening assay (acyl-peptide-AMC); assay type: biochemical; conditions: for RFU means, BsAcuC (2c) / RFU*2 means, BsAcuC (2c): means of two measurements; for [AMC] (nM), BsAcuC (2c), means: substrate screening, mean of two measurements
T1 construct: made in house; host or cells: E. coli BL21 (DE3)
T1 sequence (P39067 1-387): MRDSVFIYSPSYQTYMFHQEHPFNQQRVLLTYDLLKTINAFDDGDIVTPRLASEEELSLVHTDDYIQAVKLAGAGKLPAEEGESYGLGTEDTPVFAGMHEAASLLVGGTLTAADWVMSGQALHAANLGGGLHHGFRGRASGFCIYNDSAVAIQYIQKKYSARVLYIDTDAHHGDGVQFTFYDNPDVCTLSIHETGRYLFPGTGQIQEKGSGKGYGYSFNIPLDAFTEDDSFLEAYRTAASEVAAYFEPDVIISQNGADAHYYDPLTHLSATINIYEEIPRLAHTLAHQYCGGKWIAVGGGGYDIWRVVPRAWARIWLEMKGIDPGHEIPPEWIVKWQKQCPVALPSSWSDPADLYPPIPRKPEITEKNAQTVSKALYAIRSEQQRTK
Protocol: as §1

[3] = two measurements, single values
[4] = substrate screening, mean of two measurements
[5] = substrate screening, measurement 1 of two
[6] = substrate screening, measurement 2 of two

QPKKoct (QPKK-{AMC}; not fully specified (residue 4); printed as QPKKoct; also: octanoyl-lysine (which Lys not given here); UniProt P04637 317-320, looked up, fragment)
RFU means, KpHdaH (1b) (KpHdaH (1b)): -28 RFU | RFU*2 means, KpHdaH (1b) (KpHdaH (1b)): -56 RFU*2 | [AMC] (nM), KpHdaH (1b), means (KpHdaH (1b)): -27.34 nM | [AMC] (nM), KpHdaH (1b) (KpHdaH (1b); measurement 1 of two): -12.70 nM | [AMC] (nM), KpHdaH (1b) (KpHdaH (1b); measurement 2 of two): -41.99 nM | RFU means, controls (Controls [1]): 8340.5 RFU | RFU*2, controls (Controls [1]): 13158 RFU*2 and 20204 RFU*2 | RFU*2 means, controls (Controls [1]): 16681 RFU*2 | RFU, controls (Controls [1]): 6579 RFU and 10102 RFU | [AMC] (nM), controls, means (Controls [2]): 8145.02 nM | RFU means, VcHdaH (5b) (VcHdaH (5b)): 71 RFU | RFU*2 means, VcHdaH (5b) (VcHdaH (5b)): 142 RFU*2 | [AMC] (nM), VcHdaH (5b), means (VcHdaH (5b)): 69.34 nM | RFU*2, VcHdaH (5b) (VcHdaH (5b); [3]): 138 RFU*2 and 146 RFU*2 | RFU, VcHdaH (5b) (VcHdaH (5b); [3]): 69 RFU and 73 RFU | RFU means, LcApaH (3) (LcApaH (3)): 186 RFU | RFU*2 means, LcApaH (3) (LcApaH (3)): 372 RFU*2 | [AMC] (nM), LcApaH (3), means (LcApaH (3)): 181.64 nM | RFU means, PsApaH (4) (PsApaH (4)): 80.5 RFU | RFU*2 means, PsApaH (4) (PsApaH (4)): 161 RFU*2 | [AMC] (nM), PsApaH (4), means (PsApaH (4)): 78.61 nM | [AMC] (nM), PsApaH (4) (PsApaH (4); measurement 1 of two): 85.94 nM | [AMC] (nM), PsApaH (4) (PsApaH (4); measurement 2 of two): 71.29 nM | RFU*2, PsApaH (4) (PsApaH (4); [3]): 146 RFU*2 and 176 RFU*2 | RFU, PsApaH (4) (PsApaH (4); [3]): 73 RFU and 88 RFU | RFU means, RwDmhA (1b) (RwDmhA (1b); means of two measurements): 64 RFU | RFU*2 means, RwDmhA (1b) (RwDmhA (1b); means of two measurements): 128 RFU*2 | [AMC] (nM), RwDmhA (1b), means (RwDmhA (1b); [4]): 62.50 nM | [AMC] (nM), RwDmhA (1b) (RwDmhA (1b); [5]): 51.76 nM | [AMC] (nM), RwDmhA (1b) (RwDmhA (1b); [6]): 73.24 nM | RFU*2, RwDmhA (1b) (RwDmhA (1b); [3]): 106 RFU*2 and 150 RFU*2 | RFU, RwDmhA (1b) (RwDmhA (1b); [3]): 53 RFU and 75 RFU | RFU means, LpApaH (3) (LpApaH (3)): 63 RFU | RFU*2, LpApaH (3) (LpApaH (3)): 110 RFU*2 and 142 RFU*2 | RFU*2 means, LpApaH (3) (LpApaH (3)): 126 RFU*2 | RFU, LpApaH (3) (LpApaH (3)): 55 RFU and 71 RFU | [AMC] (nM), LpApaH (3) (LpApaH (3)): 53.71 nM and 69.34 nM | [AMC] (nM), LpApaH (3), means (LpApaH (3)): 61.52 nM | RFU means, VsHdaH (1b) (VsHdaH (1b)): 110.5 RFU | RFU*2 means, VsHdaH (1b) (VsHdaH (1b)): 221 RFU*2 | [AMC] (nM), VsHdaH (1b), means (VsHdaH (1b)): 107.91 nM | [AMC] (nM), VsHdaH (1b) (VsHdaH (1b); measurement 1 of two): 121.09 nM | [AMC] (nM), VsHdaH (1b) (VsHdaH (1b); measurement 2 of two): 94.73 nM | RFU*2, VsHdaH (1b) (VsHdaH (1b); [3]): 248 RFU*2 and 194 RFU*2 | RFU, VsHdaH (1b) (VsHdaH (1b); [3]): 124 RFU and 97 RFU | RFU means, RsPrpH (1b) (RsPrpH (1b); means of two measurements): 38 RFU | RFU*2 means, RsPrpH (1b) (RsPrpH (1b); means of two measurements): 76 RFU*2 | [AMC] (nM), RsPrpH (1b), means (RsPrpH (1b); [4]): 37.11 nM | [AMC] (nM), RsPrpH (1b) (RsPrpH (1b); [5]): 3.91 nM | [AMC] (nM), RsPrpH (1b) (RsPrpH (1b); [6]): 70.31 nM | RFU means, BsAcuC (2c) (BsAcuC (2c)): 2011.5 RFU | RFU*2 means, BsAcuC (2c) (BsAcuC (2c)): 4023 RFU*2 | [AMC] (nM), BsAcuC (2c), means (BsAcuC (2c)): 1964.36 nM | RFU*2, BsAcuC (2c) (BsAcuC (2c); [3]): 4802 RFU*2 and 3244 RFU*2

QPKKpal (QPKK-{AMC}; not fully specified (residue 4); printed as QPKKpal; also: palmitoyl-lysine (which Lys not given here); UniProt P04637 317-320, looked up, fragment)
RFU means, KpHdaH (1b) (KpHdaH (1b)): 2.5 RFU | RFU*2 means, KpHdaH (1b) (KpHdaH (1b)): 5 RFU*2 | [AMC] (nM), KpHdaH (1b), means (KpHdaH (1b)): 2.44 nM | [AMC] (nM), KpHdaH (1b) (KpHdaH (1b); measurement 1 of two): 8.79 nM | [AMC] (nM), KpHdaH (1b) (KpHdaH (1b); measurement 2 of two): -3.91 nM | RFU means, controls (Controls [1]): 9515.5 RFU | RFU*2, controls (Controls [1]): 16530 RFU*2 and 21532 RFU*2 | RFU*2 means, controls (Controls [1]): 19031 RFU*2 | RFU, controls (Controls [1]): 8265 RFU and 10766 RFU | [AMC] (nM), controls, means (Controls [2]): 9292.48 nM | RFU means, VcHdaH (5b) (VcHdaH (5b)): -8.5 RFU | RFU*2 means, VcHdaH (5b) (VcHdaH (5b)): -17 RFU*2 | [AMC] (nM), VcHdaH (5b), means (VcHdaH (5b)): -8.30 nM | RFU means, LcApaH (3) (LcApaH (3)): 26.5 RFU | RFU*2 means, LcApaH (3) (LcApaH (3)): 53 RFU*2 | [AMC] (nM), LcApaH (3), means (LcApaH (3)): 25.88 nM | RFU means, PsApaH (4) (PsApaH (4)): 27 RFU | RFU*2 means, PsApaH (4) (PsApaH (4)): 54 RFU*2 | [AMC] (nM), PsApaH (4), means (PsApaH (4)): 26.37 nM | [AMC] (nM), PsApaH (4) (PsApaH (4); measurement 1 of two): 39.06 nM | [AMC] (nM), PsApaH (4) (PsApaH (4); measurement 2 of two): 13.67 nM | RFU means, RwDmhA (1b) (RwDmhA (1b)): -48 RFU | RFU*2 means, RwDmhA (1b) (RwDmhA (1b)): -96 RFU*2 | [AMC] (nM), RwDmhA (1b), means (RwDmhA (1b)): -46.88 nM | RFU means, LpApaH (3) (LpApaH (3)): 16 RFU | RFU*2 means, LpApaH (3) (LpApaH (3)): 32 RFU*2 | [AMC] (nM), LpApaH (3), means (LpApaH (3)): 15.63 nM | RFU means, VsHdaH (1b) (VsHdaH (1b)): 11 RFU | RFU*2 means, VsHdaH (1b) (VsHdaH (1b)): 22 RFU*2 | [AMC] (nM), VsHdaH (1b), means (VsHdaH (1b)): 10.74 nM | [AMC] (nM), VsHdaH (1b) (VsHdaH (1b); measurement 1 of two): 40.04 nM | [AMC] (nM), VsHdaH (1b) (VsHdaH (1b); measurement 2 of two): -18.55 nM | RFU means, RsPrpH (1b) (RsPrpH (1b)): -58.5 RFU | RFU*2 means, RsPrpH (1b) (RsPrpH (1b)): -117 RFU*2 | [AMC] (nM), RsPrpH (1b), means (RsPrpH (1b)): -57.13 nM | RFU means, BsAcuC (2c) (BsAcuC (2c)): 77 RFU | RFU*2 means, BsAcuC (2c) (BsAcuC (2c)): 154 RFU*2 | [AMC] (nM), BsAcuC (2c), means (BsAcuC (2c)): 75.20 nM
